Paper PMC1919486

Target: T1, hSMUG1 WT (Homo sapiens, UniProt Q53HV7 1-270)
T1 sequence: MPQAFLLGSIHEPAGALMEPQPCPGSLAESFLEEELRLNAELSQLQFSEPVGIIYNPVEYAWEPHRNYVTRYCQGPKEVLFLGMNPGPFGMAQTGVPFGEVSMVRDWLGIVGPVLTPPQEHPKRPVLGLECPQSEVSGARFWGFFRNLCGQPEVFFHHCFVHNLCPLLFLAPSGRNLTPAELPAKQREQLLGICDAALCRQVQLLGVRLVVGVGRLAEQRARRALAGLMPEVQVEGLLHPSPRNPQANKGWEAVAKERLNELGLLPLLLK
Assay: EMSA

B1: T:A (T141A) (dsDNA)
DNA 1: CATAAAGTGTAAAGCCTGG
DNA 2: CCAGGCTTTACACTTTATG
binding result: no binding
